Values joined by “and” are separate entries in the source; they are usually repeats but may differ in a detail not shown here. Identical values can stand only once.
Biological target: the molecule itself
Assay: native gel or EMSA

B1: AtxA-His (natural protein)
chain: MLTPISIEKEHIRLINLLHFINEQNRWFTIKELSDYLQVADKTVRKYLKLLEDEIPPSWNLLVQKGKGIYLKKPLNESLSFVESKILRKSLNLQICEELVFKKNSMQSLAQKLHLQVGALYPIINQINYDIQSSHLNIKKKPLEISGREQDVRVFMLRLYCNIPNDYWPFPYINKQNITDLINKMEKILNVQMYTYSKHKLCVLFAITISRLLSGNTIDNVSGLILVNKNDDHYKTVASITSELQNSFGVTLHETEISFLALALLLSLGNSITTDSNKTLTSYKKTIMPLAKEITKGIEHKLQLGINYDESFLTYVVLIIKKALDKNFIQYYNYNIKFIRHIKQRHPNTFNTIQECISNLNYTVYSHFDCYEISLLTMHFETQRMLFKNNPKKIYVYTSQGCIHREYISALLEKRYNGLIKIVRNTIINLTNESLQDMEIDIIISNVNLPIKNIPIVQISEFPTERDFHEIKKII
For B1, the “stoichiometry N” value was 2 and 4.
